Key:
[1] = molecular target: His6-tagged JAM-A (Bio-Connect Life Science), immobilized on NTA-Ni2+ surfaces or biosensors; assay: AFM dynamic force spectroscopy, Bell-Evans fit, JAM-A model surface
[2] = molecular target: human JAM-A expressed on the surface of transduced Lec2 or CHO cells (Lec2-JAM-A, CHO-JAM-A) (human) (UniProt Q9Y624); assay: FD-based AFM on neuraminidase-treated Lec2-JAM-A cells after injection of Neu5Ac, against before injection
[3] = molecular target: human JAM-A expressed on the surface of transduced Lec2 or CHO cells (Lec2-JAM-A, CHO-JAM-A) (human) (UniProt Q9Y624); assay: FD-based AFM on Lec2-JAM-A cells, after injection of 1 mM Neu5Ac
[4] = molecular target: His6-tagged JAM-A (Bio-Connect Life Science), immobilized on NTA-Ni2+ surfaces or biosensors; assay: AFM force spectroscopy on JAM-A model surface after injection of 1 mM Neu5Ac or LSTa
[5] = molecular target: human JAM-A expressed on the surface of transduced Lec2 or CHO cells (Lec2-JAM-A, CHO-JAM-A) (human) (UniProt Q9Y624); assay: FD-based AFM on Lec2-JAM-A cells, after injection of 1 mM LSTa
[6] = molecular target: human JAM-A expressed on the surface of transduced Lec2 or CHO cells (Lec2-JAM-A, CHO-JAM-A) (human) (UniProt Q9Y624); assay: FD-based AFM on Lec2-JAM-A cells, after injection of 1 mM LNnT
[7] = molecular target: human JAM-A expressed on the surface of transduced Lec2 or CHO cells (Lec2-JAM-A, CHO-JAM-A) (human) (UniProt Q9Y624); assay: FD-based AFM on Lec2-JAM-A cells, before injection of 1 mM LNnT
[8] = molecular target: human JAM-A expressed on the surface of transduced Lec2 or CHO cells (Lec2-JAM-A, CHO-JAM-A) (human) (UniProt Q9Y624); assay: FD-based AFM on Lec2-JAM-A cells, before injection of 1 mM LSTa
[9] = molecular target: human JAM-A expressed on the surface of transduced Lec2 or CHO cells (Lec2-JAM-A, CHO-JAM-A) (human) (UniProt Q9Y624); assay: FD-based AFM on Lec2-JAM-A cells, before injection of 1 mM Neu5Ac
[10] = molecular target: human JAM-A expressed on the surface of transduced Lec2 or CHO cells (Lec2-JAM-A, CHO-JAM-A) (human) (UniProt Q9Y624); assay: FD-based AFM adhesion mapping on living Lec2-JAM-A cells
[11] = molecular target: His6-tagged JAM-A (Bio-Connect Life Science), immobilized on NTA-Ni2+ surfaces or biosensors; assay: single-virus AFM force spectroscopy, virion on tip, His6-JAM-A model surface

Sequence of human JAM-A expressed on the surface of transduced Lec2 or CHO cells (Lec2-JAM-A, CHO-JAM-A) (human) (Q9Y624 28-299): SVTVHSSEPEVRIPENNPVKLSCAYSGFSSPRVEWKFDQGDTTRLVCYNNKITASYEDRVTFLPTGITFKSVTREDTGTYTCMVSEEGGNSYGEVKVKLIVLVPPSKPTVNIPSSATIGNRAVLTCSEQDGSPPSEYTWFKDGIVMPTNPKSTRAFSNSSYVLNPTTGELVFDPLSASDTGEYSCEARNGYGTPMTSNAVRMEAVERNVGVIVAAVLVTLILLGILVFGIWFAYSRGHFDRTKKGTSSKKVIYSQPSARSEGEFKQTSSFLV

Substance | koff [1] [s⁻¹] | xu (distance to the transition state) [1] [nm] | increase in binding [2] [%] | binding frequency [3] [%] | overall binding force [4] [pN] | binding frequency [5] [%] | binding frequency [6] [%] | binding frequency [7] [%] | binding frequency [8] [%] | binding frequency [9] [%] | binding force (rupture force) [10] [pN] | density of adhesion events (binding frequency) [10] [%] | specific binding force [11] [pN] | frequency of adhesion events (binding frequency) [10] [%]
T3SA+ reovirus virion (wild-type strain type 3 Dearing, T3D), binding through its outer-capsid attachment protein sigma-1 (σ1) (from UniProt P03528 1-455) | 0.04 | 0.71 | 20 | 4.9 | < 400 | 4.8 | 3.9 | 3.8 | 3.8 | 3.9 | 50 to 400 | 3.5 | 20 to 130 | 
T3SA- reovirus virion (T3D derivative carrying a point mutation in sigma-1, T3D-σ1R202W) (from UniProt P03528 1-455) | 0.05 | 0.48 |  |  |  |  |  |  |  |  |  |  | 20 to 130 | 4

Source: US20220111034A1, “VIRUS COMPOSITIONS” (priority 2019, published 2022)
